Article PMC9029856, “Impact of Different [Tc(N)PNP]-Scaffolds on the Biological Properties of the Small cRGDfK Peptide: Synthesis, In Vitro and In Vivo Evaluations” (Molecules, 2022)

system: serum proteins; assay: not given; assay type: in vitro ADME; conditions: not given
Method: Thus, to have some predictive indications of the metabolic outcome of our compounds, the binding to serum proteins and the enzymatic biotransformation of ^99mTc1–3 in blood and tissue homogenates were assessed in vitro by incubating the purified compounds at 37 °C in human and mouse sera as well as in murine liver and kidney homogenates.
Protein Binding. The affinity of the ^99mTc(N) complexes toward the serum proteins was evaluated by chromatographic methods.
Upon incubation, 25 µL of each sample was withdrawn and loaded on a pre-spun (735× g for 2 min) Sephadex G-50 mini-column. The column was centrifuged at 735 × g for 1 min. The collected eluate and the column were counted in a NaI-scintillation counter. The protein-bound complex was calculated as the percentage of the total activity.

Substance	% Protein Binding [%]
[Tc(N)(H2NS-cRGDfK)(PNP3)]^+ [^99mTc1]	14.95 ± 1.95
[Tc(N)(H2NS-cRGDfK)(PNP3OH)]^+ [^99mTc3]	7.91 ± 2.01
[Tc(N)(H2NS-cRGDfK)(PNP43)]^+ [^99mTc2]	13.63 ± 2.95

system: human melanoma M21 (αvβ3 positive) cells; assay: Cell uptake and internalization in M21 cells; assay type: cell-based; conditions: M21 blocked by an excess of cold cRGDfK, 37 °C, 90 min
Method: Cell uptake and internalization studies were performed on receptor-positive human melanoma M21 (expressing high levels of αvβ3 integrin and moderate level of integrin αvβ5), human breast cancer MCF7 (exclusively expressing αvβ5), and receptor-negative human melanoma M21L cell lines. The expression of αvβ3 and αvβ5 by cells was already evaluated by flow cytometry (Table 2). The stability of each radiolabeled peptide in the culture media before and after cell exposure was assessed.
Experiments were conducted in suspension at 37 °C. The working conditions were set up to avoid cell damage and/or death. With the use of these information, the cells were pre-incubated in sterile glass tubes at 37 °C for 10 min, in the presence or not of cRGDfK pentapeptide (50 µL; 1.65 mM).
Then, 1 mL of the cell suspension (1 × 10^6 cells/mL) was incubated with intermittent agitation with 10 µL (10 µCi) of ^99mTc1–3. At 90 min, the cells were moved in Eppendorf microcentrifuge tubes (1.5 mL) and the incubation was interrupted by centrifugation (3000 rpm for 5 min at 10 °C). The supernatant (S1) was separated from the pellet. The cell pellet was treated 10 min at room temperature with saline acetate buffer (CH3COOH 0.2M/NaCl 0.5 M) to remove the membrane-bound compound. After centrifugation (3000 rpm for 10 min at 10 °C), the supernatant (S2) was separated from the pellet (P1), and each fraction was collected, placed in a separated counting tube, and the activity was measured using a NaI counter (Cobra II, Packard) to estimate both the cell uptake and the internalized fraction.
The uptake of complexes was expressed as percentage cell uptake of the total activity on 10^6 cells (% cell uptake/10^6 cells).
All assessments were conducted in triplicate for three experiments.

Substance	cell uptake (sum of surface bound and internalized radioactivity), blocked [% cell uptake/10^6 cells]
[Tc(N)(H2NS-cRGDfK)(PNP3)]^+ [^99mTc1]	2.15 ± 0.17
[Tc(N)(H2NS-cRGDfK)(PNP3OH)]^+ [^99mTc3]	1.41 ± 0.25
[Tc(N)(H2NS-cRGDfK)(PNP43)]^+ [^99mTc2]	1.48 ± 0.12

same assay, conditions: M21 unblocked, 37 °C, 90 min

Substance	cell uptake (sum of surface bound and internalized radioactivity) [% cell uptake/10^6 cells]
[Tc(N)(H2NS-cRGDfK)(PNP3)]^+ [^99mTc1]	2.88 ± 0.09
[Tc(N)(H2NS-cRGDfK)(PNP3OH)]^+ [^99mTc3]	2.60 ± 0.36
[Tc(N)(H2NS-cRGDfK)(PNP43)]^+ [^99mTc2]	2.57 ± 0.42

same assay, conditions: internalized radioactivity, melanoma cell lines

Substance	specific/nonspecific ratio, internalized radioactivity only
[Tc(N)(H2NS-cRGDfK)(PNP3)]^+ [^99mTc1]	4.5
[Tc(N)(H2NS-cRGDfK)(PNP3OH)]^+ [^99mTc3]	4.29
[Tc(N)(H2NS-cRGDfK)(PNP43)]^+ [^99mTc2]	3.28

system: not given; assay: not given; parameters: species or system Sprague Dawley rats; conditions: rat, in vivo, iv, 15 uCi/100 uL, 0.5 h
Method: Pharmacokinetics and metabolism.
Female Sprague Dawley rats weighing 180–200 g were anesthetized with an intraperitoneal injection of a mixture of Zoletil (40 mg/kg) and xylazine (2 mg/kg). A jugular vein was surgically exposed, and the solution containing the radiolabeled peptide was injected (15 µCi/100 µL). The rats (n = 3) were scarified by cervical dislocation at different times after injection. The blood was withdrawn from the heart with a syringe immediately after death and quantified. Organs were excised, rinsed in saline, weighed, and the activity was counted in a NaI counter. The results were expressed as the percentage of injected activity per gram of tissue (%IA/g) to be able to compare our results with those reported in the literature.

Substance	Blood [%IA/g]	Heart [%IA/g]	Intestine [%IA/g]	Kidneys [%IA/g]	Liver [%IA/g]	Lungs [%IA/g]	Muscle [%IA/g]	Spleen [%IA/g]	Stomach [%IA]	Urine [%IA]
[Tc(N)(H2NS-cRGDfK)(PNP3)]^+ [^99mTc1]	0.81 ± 0.05	0.26 ± 0.05	0.65 ± 0.16	2.71 ± 0.18	0.96 ± 0.10	0.64 ± 0.09	0.21 ± 0.09	0.65 ± 0.09	0.53 ± 0.07	27.2 ± 11.7
[Tc(N)(H2NS-cRGDfK)(PNP3OH)]^+ [^99mTc3]	0.46 ± 0.07	0.25 ± 0.06	1.29 ± 0.13	5.22 ± 0.44	0.90 ± 0.09	0.62 ± 0.08	0.17 ± 0.01	0.43 ± 0.05	0.72 ± 0.04	27.8 ± 5.6
[Tc(N)(H2NS-cRGDfK)(PNP43)]^+ [^99mTc2]	0.65 ± 0.04	0.30 ± 0.01	1.19 ± 0.14	6.77 ± 0.86	0.90 ± 0.13	0.82 ± 0.09	0.22 ± 0.03	0.47 ± 0.02	0.82 ± 0.07	17.7 ± 3.6

same assay, conditions: rat, in vivo, iv, 15 uCi/100 uL, 1 h

Substance	Blood [%IA/g]	Heart [%IA/g]	Intestine [%IA/g]	Kidneys [%IA/g]	Liver [%IA/g]	Lungs [%IA/g]	Muscle [%IA/g]	Spleen [%IA/g]	Stomach [%IA]	Urine [%IA]
[Tc(N)(H2NS-cRGDfK)(PNP3)]^+ [^99mTc1]	0.30 ± 0.04	0.15 ± 0.01	0.60 ± 0.12	1.57 ± 0.13	0.75 ± 0.02	0.43 ± 0.01	0.13 ± 0.06	0.51 ± 0.04	0.41 ± 0.02	33.1 ± 5.6
[Tc(N)(H2NS-cRGDfK)(PNP3OH)]^+ [^99mTc3]	0.25 ± 0.03	0.15 ± 0.00	1.95 ± 0.17	4.83 ± 0.35	0.80 ± 0.06	0.49 ± 0.01	0.13 ± 0.01	0.39 ± 0.04	0.64 ± 0.08	31.2 ± 3.0
[Tc(N)(H2NS-cRGDfK)(PNP43)]^+ [^99mTc2]	0.35 ± 0.07	0.20 ± 0.04	1.69 ± 0.17	6.20 ± 0.68	0.73 ± 0.01	0.56 ± 0.10	0.14 ± 0.03	0.40 ± 0.05	0.64 ± 0.08	28.5 ± 4.6

same assay, conditions: rat, in vivo, iv, 15 uCi/100 uL, 2 h

Substance	Blood [%IA/g]	Heart [%IA/g]	Intestine [%IA/g]	Kidneys [%IA/g]	Liver [%IA/g]	Lungs [%IA/g]	Muscle [%IA/g]	Spleen [%IA/g]	Stomach [%IA]	Urine [%IA]
[Tc(N)(H2NS-cRGDfK)(PNP3)]^+ [^99mTc1]	0.09 ± 0.01	0.10 ± 0.02	0.40 ± 0.07	0.92 ± 0.20	0.68 ± 0.06	0.25 ± 0.03	0.10 ± 0.06	0.47 ± 0.04	0.34 ± 0.04	54.3 ± 1.9
[Tc(N)(H2NS-cRGDfK)(PNP3OH)]^+ [^99mTc3]	0.16 ± 0.01	0.13 ± 0.02	3.76 ± 0.27	4.44 ± 0.32	0.75 ± 0.09	0.37 ± 0.06	0.12 ± 0.00	0.36 ± 0.02	0.57 ± 0.03	44.2 ± 10.9
[Tc(N)(H2NS-cRGDfK)(PNP43)]^+ [^99mTc2]	0.19 ± 0.04	0.15 ± 0.06	1.94 ± 0.25	5.51 ± 0.42	0.57 ± 0.03	0.42 ± 0.02	0.12 ± 0.01	0.38 ± 0.04	0.51 ± 0.08	41.5 ± 4.5

same assay, conditions: rat, in vivo, iv, 15 uCi/100 uL, 4 h

Substance	Blood [%IA/g]	Heart [%IA/g]	Intestine [%IA/g]	Kidneys [%IA/g]	Liver [%IA/g]	Lungs [%IA/g]	Muscle [%IA/g]	Spleen [%IA/g]	Stomach [%IA]	Urine [%IA]
[Tc(N)(H2NS-cRGDfK)(PNP3)]^+ [^99mTc1]	0.05 ± 0.01	0.08 ± 0.01	0.38 ± 0.01	0.88 ± 0.09	0.66 ± 0.07	0.16 ± 0.04	0.06 ± 0.01	0.45 ± 0.00	0.29 ± 0.02	55.9 ± 7.1
[Tc(N)(H2NS-cRGDfK)(PNP3OH)]^+ [^99mTc3]	0.09 ± 0.01	0.12 ± 0.03	4.17 ± 0.59	4.22 ± 0.45	0.67 ± 0.04	0.32 ± 0.02	0.08 ± 0.00	0.34 ± 0.04	0.46 ± 0.04	30.2 ± 9.45
[Tc(N)(H2NS-cRGDfK)(PNP43)]^+ [^99mTc2]	0.11 ± 0.02	0.12 ± 0.01	1.90 ± 0.19	4.27 ± 0.31	0.52 ± 0.07	0.34 ± 0.04	0.09 ± 0.00	0.34 ± 0.07	0.41 ± 0.09	43.5 ± 3.4

system: not listed separately; assay: Cysteine (Cys) and Glutathione (GSH) challenge; assay type: physicochemical; conditions: excess free L-cysteine (10 mM), 37 °C, pH 7.4, 24 h
Method: The inertness of the radioconjugates under conditions relevant for in vivo applications were assessed by evaluating the stability of ^99mTc1–3 in solution and after incubation (37 °C) with transchelating agents (glutathione and L-cysteine, 10–1 mM, pH 7.4).
Cysteine (Cys) and Glutathione (GSH) Challenge. Challenge experiments were carried out with the purified complex using an excess of Cys or GSH. An aliquot (50 µL) of an aqueous stock solution of cysteine hydrochloride (10 mM or 2 mM) was added to a propylene test tube containing PBS (400 µL, pH 7.4) and the relevant [^99mTc(N)(H2NS-cRGDfK)(PNP)]^+ complex (50 µL). The mixture was vortexed and incubated at 37 °C for 24 h. A control reaction containing an equal volume of water, instead of cysteine hydrochloride, was studied in parallel. At 0.5, 1, 3, and 24 h, aliquots of the reaction mixture were withdrawn and analyzed by HPLC chromatography. A similar procedure was applied using GSH (50 µL, 10 mM) as challenger.

Substance	% RCP in challenge with L-cysteine [%]
[Tc(N)(H2NS-cRGDfK)(PNP3)]^+ [^99mTc1]	> 95
[Tc(N)(H2NS-cRGDfK)(PNP3OH)]^+ [^99mTc3]	27.31 ± 3.6
[Tc(N)(H2NS-cRGDfK)(PNP43)]^+ [^99mTc2]	> 95

same assay, conditions: excess glutathione, 37 °C, pH 7.4, 24 h

Substance	% RCP in challenge with GSH [%]
[Tc(N)(H2NS-cRGDfK)(PNP3)]^+ [^99mTc1]	> 95
[Tc(N)(H2NS-cRGDfK)(PNP3OH)]^+ [^99mTc3]	73.33 ± 2.8
[Tc(N)(H2NS-cRGDfK)(PNP43)]^+ [^99mTc2]	> 95
